# Laboratory results as given in US20120128626A1 (ALDERBIO, published 2012).
# B1: Ab1 (antibody, human IgG1, kappa, N297A, V domains shown)
# VH: EVQLVESGGGLVQPGGSLRLSCAASGFSLSNYYVTWVRQAPGKGLEWVGIIYGSDETAYATSAIGRFTISRDNSKNTLYLQMNSLRAEDTAVYYCARDDSSDWDAKFNLWGQGTLVTVSS
# VL: AIQMTQSPSSLSASVGDRVTITCQASQSINNELSWYQQKPGKAPKLLIYRASTLASGVPSRFSGSGSGTDFTLTISSLQPDDFATYYCQQGYSLRNIDNAFGGGTKVEIKR
# Columns and labels:
# Assay in all cases: cell-based or functional assay
# Rat IL-6 = biological target: T1, Rat IL-6 (rat, UniProt P20607 25-211)
# T1 sequence (looked up): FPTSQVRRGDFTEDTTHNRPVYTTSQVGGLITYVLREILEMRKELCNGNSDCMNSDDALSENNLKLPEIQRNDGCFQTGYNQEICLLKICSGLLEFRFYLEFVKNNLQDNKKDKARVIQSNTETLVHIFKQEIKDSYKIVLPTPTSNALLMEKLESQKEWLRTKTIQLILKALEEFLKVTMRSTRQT
# Mouse IL-6 = biological target: T2, Mouse IL-6 (mouse, UniProt P08505 25-211)
# T2 sequence (looked up): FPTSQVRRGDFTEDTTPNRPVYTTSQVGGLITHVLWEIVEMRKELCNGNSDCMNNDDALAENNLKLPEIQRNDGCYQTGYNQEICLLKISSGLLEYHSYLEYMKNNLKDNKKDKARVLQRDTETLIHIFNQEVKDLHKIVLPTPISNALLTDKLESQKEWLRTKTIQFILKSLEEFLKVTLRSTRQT
# Cynomolgus monkey IL-6 = biological target: T3, Cynomolgus monkey IL-6 (cynomolgus monkey, UniProt P79341 28-212, limits assumed)
# T3 sequence (looked up): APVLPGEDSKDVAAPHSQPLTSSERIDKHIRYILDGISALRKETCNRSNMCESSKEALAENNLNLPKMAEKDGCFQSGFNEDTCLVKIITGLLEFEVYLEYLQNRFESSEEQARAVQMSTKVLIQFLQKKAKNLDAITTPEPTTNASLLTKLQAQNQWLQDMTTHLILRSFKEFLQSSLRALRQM
# Human IL-6 = Human IL-6 (human, UniProt P05231 30-212)
binder,measurement,setting,value
B1,"IC50, inhibition of IL-6-stimulated T1165 cell proliferation",Rat IL-6,2.06 nM
same,"IC50, inhibition of IL-6-stimulated T1165 cell proliferation",Mouse IL-6,1.84 nM
same,"IC50, inhibition of IL-6-stimulated T1165 cell proliferation",Cynomolgus monkey IL-6,0.012 nM
same,"IC50, inhibition of IL-6-stimulated T1165 cell proliferation",Human IL-6,0.013 nM
